Experimental data as given in patent US20260109776A1 (Amgen, published 2026).

T1: human TNFR2 (human, UniProt P20333 23-461)
T1 construct: whole, on cells
T1 sequence (looked up): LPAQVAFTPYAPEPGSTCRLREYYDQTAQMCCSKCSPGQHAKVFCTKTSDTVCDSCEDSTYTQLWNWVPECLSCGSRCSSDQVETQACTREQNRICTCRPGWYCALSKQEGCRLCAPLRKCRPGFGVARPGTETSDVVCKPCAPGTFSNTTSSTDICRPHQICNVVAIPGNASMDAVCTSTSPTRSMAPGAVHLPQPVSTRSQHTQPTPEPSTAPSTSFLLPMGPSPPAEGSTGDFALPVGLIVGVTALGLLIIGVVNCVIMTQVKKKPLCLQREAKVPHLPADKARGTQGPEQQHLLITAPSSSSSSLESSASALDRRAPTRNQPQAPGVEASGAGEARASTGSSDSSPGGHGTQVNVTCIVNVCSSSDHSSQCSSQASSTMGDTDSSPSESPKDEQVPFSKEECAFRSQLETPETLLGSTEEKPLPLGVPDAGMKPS

T2: human TNFR1 (human, UniProt P19438 30-455)
T2 construct: whole, on cells
T2 sequence (looked up): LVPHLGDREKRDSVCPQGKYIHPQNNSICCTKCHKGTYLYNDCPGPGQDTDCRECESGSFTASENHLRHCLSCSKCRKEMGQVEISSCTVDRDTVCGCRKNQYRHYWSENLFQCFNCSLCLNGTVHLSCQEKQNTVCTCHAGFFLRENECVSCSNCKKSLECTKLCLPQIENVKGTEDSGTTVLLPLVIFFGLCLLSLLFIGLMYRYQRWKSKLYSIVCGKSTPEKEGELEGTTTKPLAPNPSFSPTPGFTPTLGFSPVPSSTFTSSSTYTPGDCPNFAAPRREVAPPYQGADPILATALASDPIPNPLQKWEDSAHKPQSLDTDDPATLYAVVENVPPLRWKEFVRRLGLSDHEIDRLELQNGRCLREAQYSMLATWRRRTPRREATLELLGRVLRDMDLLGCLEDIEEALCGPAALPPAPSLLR

T3: human TNFR14 (human, UniProt Q92956 39-283)
T3 construct: whole, on cells
T3 sequence (looked up): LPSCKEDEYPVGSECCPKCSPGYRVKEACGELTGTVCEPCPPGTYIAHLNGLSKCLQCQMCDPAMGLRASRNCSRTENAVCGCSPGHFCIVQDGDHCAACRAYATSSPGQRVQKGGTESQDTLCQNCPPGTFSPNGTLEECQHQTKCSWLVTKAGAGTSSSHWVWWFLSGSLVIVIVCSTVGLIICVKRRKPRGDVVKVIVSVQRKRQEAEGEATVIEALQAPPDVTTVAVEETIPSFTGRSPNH

T4: cynomolgus monkey CD40 on cells (cynomolgus monkey, UniProt P25942 21-277 (human entry))
T4 construct: also called cyno CD40 on HEK293 cells; CD40 on cynomolgus monkey B cells
T4 chain: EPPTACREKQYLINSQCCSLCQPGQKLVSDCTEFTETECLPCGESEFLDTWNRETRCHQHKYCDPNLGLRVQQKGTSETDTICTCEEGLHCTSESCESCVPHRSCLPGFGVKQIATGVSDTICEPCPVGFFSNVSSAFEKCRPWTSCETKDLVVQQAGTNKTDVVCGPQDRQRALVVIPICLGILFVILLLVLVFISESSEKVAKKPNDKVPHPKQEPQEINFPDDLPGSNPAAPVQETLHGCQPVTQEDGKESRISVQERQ

T5: mouse CD40 on cells (mouse, UniProt P27512 20-289)
T5 construct: whole, on cells; also called mouse CD40 on HEK293 cells; CD40 on mouse B cells
T5 sequence (looked up): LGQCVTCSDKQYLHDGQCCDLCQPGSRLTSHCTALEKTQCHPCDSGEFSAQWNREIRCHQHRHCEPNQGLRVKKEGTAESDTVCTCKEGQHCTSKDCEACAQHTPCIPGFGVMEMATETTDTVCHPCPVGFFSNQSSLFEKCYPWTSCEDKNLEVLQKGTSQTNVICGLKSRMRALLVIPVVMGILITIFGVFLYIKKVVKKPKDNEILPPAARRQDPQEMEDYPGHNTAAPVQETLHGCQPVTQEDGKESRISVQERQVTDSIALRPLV


What was measured:
human CD40 on cells [1] = molecular target: T6, human CD40 on cells (human, UniProt P25942 21-277); assay: cell-based or functional assay
human TNFR2 = molecular target: T1, human TNFR2; assay: flow cytometry, HEK293 transfectants
Procedure: (§1) The binding affinity of anti-human CD40 antibodies to human and cynomolgus monkey CD40 was measured by Octet assay (Table 3), quantifying association rate (Kon), disassociation rate (Kdis), and equilibrium binding constant (KD). Cross-reactivity of anti-CD40 antibodies to related TNF receptor superfamily (TNFRSF) members was evaluated by expressing human TNFR1, TNFR2, TNFR10, or TNFR14 on HEK293 cells by transient transfection of expression vectors encoding these genes. Binding of indicated anti-human CD40 antibody to these transfected cells was determined by flow cytometry. […] Cross-reactivity of anti-CD40 antibodies to cynomolgus monkey and mouse CD40 was evaluated by expressing cynomolgus monkey or mouse CD40 on HEK293 cells by transient transfection of expression vectors encoding these genes. Binding of indicated anti-human CD40 antibody to cells overexpressing cynomolgus monkey and mouse CD40 was determined by flow cytometry.

human TNFR1 [2] = molecular target: T2, human TNFR1; assay: flow cytometry, HEK293 transfectants
Procedure: as §1

human TNFR14 [3] = molecular target: T3, human TNFR14; assay: flow cytometry, HEK293 transfectants
Procedure: as §1

[4] = molecular target: T4, cynomolgus monkey CD40 on cells; assay: flow cytometry, HEK293 transfectants vs control cells
Procedure: as §1

human TNFR1 [5] = molecular target: T2, human TNFR1; assay: as above
Procedure: as §1

mouse CD40 on cells = molecular target: T5, mouse CD40 on cells; assay: as above
Procedure: as §1

human TNFR14 [6] = molecular target: T3, human TNFR14; assay: as above
Procedure: as §1

human TNFR10 = molecular target: T7, human TNFR10 (human); assay: as above
T7 construct: whole, on cells; Name as printed is ambiguous (TNFRSF10A-D)
Procedure: as §1

human CD40 on cells [7] = molecular target: T6, human CD40 on cells; assay: flow cytometry, labelled CD40L on CD40-293T cells, antibody at 5 ug/ml
Procedure: Percent ligand binding inhibition was calculated as [(CD40L binding gMFI in the absence of anti-CD40)−(CD40L binding gMFI in the presence of anti-CD40)]/(CD40L binding gMFI in the absence of anti-CD40). gMFI: geometric mean fluorescent intensity. All anti-CD40 antibodies show minimal effects on the ability of CD40L to bind to the CD40 receptor (Table 7).
Target sequence in this assay (P25942 21-277 limits assumed): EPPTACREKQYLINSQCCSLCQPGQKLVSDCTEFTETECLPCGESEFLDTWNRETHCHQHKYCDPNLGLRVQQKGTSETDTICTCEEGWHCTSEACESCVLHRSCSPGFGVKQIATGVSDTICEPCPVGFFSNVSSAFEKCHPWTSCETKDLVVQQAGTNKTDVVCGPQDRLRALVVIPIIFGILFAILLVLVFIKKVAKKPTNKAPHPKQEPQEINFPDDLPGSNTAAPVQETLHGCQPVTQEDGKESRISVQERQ

Row | human B cell proliferation, no crosslinking, EC50 (human CD40 on cells [1]) [nM] | human B cell proliferation, no crosslinking, Max Fold Change (human CD40 on cells [1]) [fold] | human B cell proliferation, with protein G crosslinking, EC50 (human CD40 on cells [1]) [nM] | human B cell proliferation, with protein G crosslinking, Max Fold Change (human CD40 on cells [1]) [fold] | binding result (human TNFR2) | binding result (human TNFR1 [2]) | binding result (human TNFR14 [3]) | fold over control (gMFI) [4] [fold] | fold over control (gMFI) (human TNFR1 [5]) [fold] | fold over control (gMFI) (mouse CD40 on cells) [fold] | fold over control (gMFI) (human TNFR14 [6]) [fold] | fold over control (gMFI) (human TNFR10) [fold] | Ligand Binding Inhibition (%) (human CD40 on cells [7]) | Binder
1 | > 16.7 | 1.45 | 0.362 | 23.8 | no binding | no binding | no binding | 71 | 1.07 | 1.3 | 0.96 | 0.91 | -15 | 30A12 (antibody, IgG4, V domains shown, also called 4878-1) VH: EVQLLESGGGLVQPGGSLRLSCAASGFTFSRNAMSWVRQAPGKGLEWVSATGGSGISTYYADSVKGRFTISRDNSKNTLYLQMNSLRAEDTAVYYCARGYSNSWWYFDYWGQGTLVTVSS VL: QSALTQPASVSGSPGQSITISCTGTSSDVGNYNLVSWYQQHPGKAPKLMIFEVNQRPSGVSNRFSGSKSGTTASLTISGLQAADEADYFCCSYTTSSTYVIFGGGTKLTVLG
2 | > 16.7 | 1.19 | 0.43 | 18.1 | no binding | no binding | no binding | 57 | 0.97 | 0.9 | 0.89 | 0.87 | 24 | 4G7 (antibody, IgG4, V domains shown, also called 4869-1) VH: QVQLVQSGAEVKKPGASVKVSCKASGYTFAGYYMHWVRQAPGQGLEWMGWINPDSGGTNFAQQFQGRVTMTRDTSISTAYMEVSRLRSDDTAVFYCAREKITMTGIYFDYWGQGTLVTVSS VL: DIQMTQSPSSLSASVGDILTITCRASQNITTYLNWYQQKPGKAPNLLISAASRLRSGVPSRFSGSGSGTDFTLTISSLQPVDFTTFYCQQTFTTPWTFGQGTKVEIKR
